# Measured values taken from patent publication US8461305B2, “L-fucose α1→6 specific lectin” (J-Oil Mills, Inc., priority 2008, dated 2013).
# B1: Lens culinaris agglutinin (protein)
# chain 1: TETTSFSITKFSPDQKNLIFQGDGYTTKGKLTLTKAVKSTVGRALYSTPIHIWDRDTGNVANFVTSFTFVIDAPSSYNVADEFTFFIAPVDTKPQTGGGYLGVFNSKEYDKTSQTVAVEFDTFYNAAWDPSNKERHIGIDVNSIKSVNTKSWNLQNGERANVVIAFNAATNVLTVTLTYP
# chain 2: VTSYTLNEVVPLKDVVPEWVRIGFSATTGAEFAAHEVHSWSFHSELGGTSSS
# B2: Aleuria aurantia lectin (protein)
# chain: PTEFLYTSKIAAISWAATGGRQQRVYFQDLNGKIREAQRGGDNPWTGGSSQNVIGEAKLFSPLAAVTWKSAQGIQIRVYCVNKDNILSEFVYDGSKWITGQLGSVGVKVGSNSKLAALQWGGSESAPPNIRVYYQKSNGSGSSIHEYVWSGKWTAGASFGSTVPGTGIGATAIGPGRLRIYYQATDNKIREHCWDSNSWYVGGFSASASAGVSIAAISWGSTPNIRVYWQKGREELYEAAYGGSWNTPGQIKDASRPTPSLPDTFIAANSSGNIDISVFFQASGVSLQQWQWISGKGWSIGAVVPTGTPAGW
# What was measured:
# [1] = target: T1, α-fetoprotein (mainly L1-type sugar chain) (Homo sapiens, UniProt P02771); assay: detection of tumor marker sugar chain by ELISA; format: binding; details: α-fetoprotein from human umbilical cord blood serum, coated at 0.01 μg/ml
# T1 construct: derived from human umbilical cord blood serum; from tissue; host or cells: human umbilical cord blood serum
# T1 sequence (P02771 19-609): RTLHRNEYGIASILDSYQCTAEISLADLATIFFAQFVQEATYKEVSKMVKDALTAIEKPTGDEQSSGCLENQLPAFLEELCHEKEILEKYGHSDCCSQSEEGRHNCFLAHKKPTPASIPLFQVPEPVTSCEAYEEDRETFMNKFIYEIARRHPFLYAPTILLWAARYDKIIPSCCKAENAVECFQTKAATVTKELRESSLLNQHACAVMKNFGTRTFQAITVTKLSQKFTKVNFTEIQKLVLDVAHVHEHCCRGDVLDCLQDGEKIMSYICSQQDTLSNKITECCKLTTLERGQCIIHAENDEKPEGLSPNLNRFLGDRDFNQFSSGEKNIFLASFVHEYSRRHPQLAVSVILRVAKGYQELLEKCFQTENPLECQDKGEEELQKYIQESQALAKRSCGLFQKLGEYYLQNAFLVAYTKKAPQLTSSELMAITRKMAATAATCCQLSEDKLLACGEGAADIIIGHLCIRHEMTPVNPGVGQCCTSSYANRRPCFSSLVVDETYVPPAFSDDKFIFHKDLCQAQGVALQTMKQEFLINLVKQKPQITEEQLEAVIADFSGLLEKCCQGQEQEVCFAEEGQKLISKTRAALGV
# From the text: (§1) α-fetoprotein (hereinafter referred to as “AFP”) is a glycoprotein included in a blood serum having an N-linked sugar chain. Substantially no AFP exists in the blood serum of a healthy adult. On the other hand, the blood serum of a patient having a benign liver disease has an increased α-fetoprotein L1-type sugar chain (AFP-L1). Furthermore, α-fetoprotein L3-type sugar chain (AFP-L3) is detected in a patient of a liver cancer. Conventionally, the difference in a sugar chain has been measured by LCA and the measurement result has been used for the diagnosis of a liver disease.
# (§2) PTL of Example 1, SRL of Example 2, AAL of Comparison Example 1, AOL of Comparison Example 2, and the LCA of Comparison Example 3 that were biotin-labeled were used to evaluate the binding property of α-fetoprotein by ELISA.
# (§3) 0.1 M carbonic acid buffer solution (pH 9.5) was used to dilute α-fetoprotein (derived from human umbilical cord blood serum, mainly L1-type sugar chain) and α-fetoprotein-L3 (prepared from the culture supernatant of human liver cancer cells) so as to achieve 0.01 μg/ml. Then, the resultant solution was added to a microtiter plate (Nunc) and was incubated at 4 degrees C. one night. After the solution was cleaned by 0.05% Tween/PBS three times, 1% BSA/PBS was added to wells and the solution was incubated at 37 degrees C. for one hour. After the solution was washed by 0.05% Tween/PBS three times, the wells were added with the biotin-labeled lectin solution appropriately diluted by 1% BSA/0.05% Tween/PBS and the solution was incubated at 37 degrees C. for one hour. After the solution was cleaned by 0.05% Tween/PBS three times, HRP labeled streptavidin solution diluted by 1% BSA/0.05% Tween/PBS was added and the solution was incubated at 37 degrees C. for 30 minutes. After the solution was cleaned by 0.05% Tween/PBS three times, TMB Peroxidase substrate system (KPL) was added and the resultant solution was incubated at a room temperature for 10 minutes while light was being blocked. The reaction was stopped by 1 M phosphoric acid. Then, a microplate reader (MPR-A4i, TOSOH CORPORATION) was used to measure the absorbance at 450 nm.
# (§4) The absorbance at 450 nm of the plate on which α-fetoprotein and α-fetoprotein-L3 were caused to react with lectin was measured. Based on this value, the reaction value ([absorbance at 450 nm of a well for which glycoprotein was solid-phased to the plate and reacted]−[absorbance at 450 nm of a well for which glycoprotein was not solid-phased to the plate and reacted]) was calculated. Next, for each lectin, the interaction was calculated. Next, the calculation result of the reaction values is shown in Table 10 and FIG. 24 to FIG. 28.
# [2] = target: T2, α-fetoprotein-L3 (Homo sapiens, UniProt P02771); assay: detection of tumor marker sugar chain by ELISA; format: binding; details: α-fetoprotein-L3 from culture supernatant of human liver cancer cells, coated at 0.01 μg/ml
# T2 construct: prepared from the culture supernatant of human liver cancer cells; endogenous in cells
# T2 sequence (P02771 19-609): T1 sequence (P02771 19-609)
# From the text: as §1, §2, §3, §4
molecule,measurement,setting,value
"Pholiota terrestris lectin [PTL, novel L-fucose α1→6 specific lectin purified from the mushroom Pholiota terrestris]","reaction value (absorbance at 450 nm, blank-subtracted) by ELISA",[1],0.039
same,"reaction value (absorbance at 450 nm, blank-subtracted) by ELISA",[2],1.548
"Stropharia rugosoannulata lectin [SRL, novel L-fucose α1→6 specific lectin purified from the mushroom Stropharia rugosoannulata]","reaction value (absorbance at 450 nm, blank-subtracted) by ELISA",[1],0.031
same,"reaction value (absorbance at 450 nm, blank-subtracted) by ELISA",[2],1.625
"Aspergillus oryzae lectin [AOL, reference compound]","reaction value (absorbance at 450 nm, blank-subtracted) by ELISA",[1],0.011
same,"reaction value (absorbance at 450 nm, blank-subtracted) by ELISA",[2],0.898
B1,"reaction value (absorbance at 450 nm, blank-subtracted) by ELISA",[1],0.010
same,"reaction value (absorbance at 450 nm, blank-subtracted) by ELISA",[2],0.455
B2,"reaction value (absorbance at 450 nm, blank-subtracted) by ELISA",[1],−0.049
same,"reaction value (absorbance at 450 nm, blank-subtracted) by ELISA",[2],0.795
